Reference: US11419945B2, “Antigen binding proteins” (Glaxo Group Limited, priority 2011, dated 2022)
Where a chain is given by its changes, count along the chain named.

What was measured:
Human in house BCMA = molecular target: T1, Human in house BCMA (Homo sapiens, UniProt Q02223); test: ProteOn analysis of CA8 chimeric and humanised constructs, human in house BCMA; type: binding; conditions: for off rate: Run 2, ProteOn, recombinant human BCMA, no affinity values obtained
T1 construct: CD33 signal peptide (N); TEV site (internal); Fc (C); made in house
T1 sequence (Q02223 with tags, fused parts or gaps limits assumed): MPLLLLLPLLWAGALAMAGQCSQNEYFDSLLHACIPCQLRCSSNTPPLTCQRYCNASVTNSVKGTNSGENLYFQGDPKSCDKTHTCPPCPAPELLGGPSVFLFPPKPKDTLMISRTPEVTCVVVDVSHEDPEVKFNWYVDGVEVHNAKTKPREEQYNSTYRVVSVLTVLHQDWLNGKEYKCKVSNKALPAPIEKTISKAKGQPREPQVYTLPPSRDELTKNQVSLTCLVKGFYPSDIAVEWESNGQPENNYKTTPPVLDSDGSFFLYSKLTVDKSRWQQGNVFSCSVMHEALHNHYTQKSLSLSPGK
Description: (§1) The initial screen of CA8 chimeric and humanised variants was carried out on the ProteOn XPR36 (Biorad). The method was as follows; Protein A was immobilised on a GLC chip (Biorad, Cat No: 176-5011) by primary amine coupling, CA8 variants were then captured on this surface and recombinant human BCMA (in house or commercial US Biological, B0410) materials (run 2 only)) passed over at 256, 64, 16, 4, 1 nM with a 0 nM injection (i.e. buffer alone) used to double reference the binding curves, the buffer used is the HBS-EP buffer. 50 mM NaOH was used to regenerate the capture surface. The data was fitted to the 1:1 model using the analysis software inherent to the ProteOn XPR36. Run 1 corresponds to the first screen of humanised CA8 variants (JO to J5 series) and run 2 to the second screen of humanised CA8 variants (J5 to J9 series). Both runs were carried out at 25° C.

Human commercial BCMA [1] = molecular target: T2, Human commercial BCMA (Homo sapiens, UniProt Q02223); test: ProteOn analysis of CA8 chimeric and humanised constructs, commercial human BCMA; type: binding; conditions: Run 2, commercial human BCMA, 25° C.
T2 construct: purchased US Biological B0410
T2 sequence (Q02223 1-184): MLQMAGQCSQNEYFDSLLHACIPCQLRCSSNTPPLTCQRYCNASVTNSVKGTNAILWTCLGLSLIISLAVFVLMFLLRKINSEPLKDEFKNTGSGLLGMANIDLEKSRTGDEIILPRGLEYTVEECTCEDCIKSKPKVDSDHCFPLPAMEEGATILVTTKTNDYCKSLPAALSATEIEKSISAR
Description: as §1

Cyno in house BCMA [2] = test: ProteOn analysis of CA8 chimeric and humanised constructs, cyno in house BCMA; type: binding; conditions: Run 2, Cyno in house BCMA, 25° C.
Cyno in house BCMA, sequence (as listed by the source): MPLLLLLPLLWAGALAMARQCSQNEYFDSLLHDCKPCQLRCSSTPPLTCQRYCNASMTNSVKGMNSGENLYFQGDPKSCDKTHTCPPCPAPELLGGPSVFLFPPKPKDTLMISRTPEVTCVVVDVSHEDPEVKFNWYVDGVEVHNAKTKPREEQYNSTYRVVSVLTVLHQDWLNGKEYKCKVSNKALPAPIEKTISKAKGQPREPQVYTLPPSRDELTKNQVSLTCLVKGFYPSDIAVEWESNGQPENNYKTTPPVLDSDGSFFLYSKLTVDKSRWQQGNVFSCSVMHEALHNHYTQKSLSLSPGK

Human commercial BCMA [3] = molecular target: T2, Human commercial BCMA; test: BIAcore analysis of J6M0 and J9M0, human commercial BCMA; type: binding
Description: (§2) Protein A was immobilised on a CMS chip (GE Healthcare, Cat No: BR-1005-30) by primary amine coupling and this surface was then used to capture the antibody molecules. Recombinant human BCMA (US Biological, B0410) was used as analyte at 256 nM, 64 nM, 16 nM, 4 nM and 1 nM. Regeneration of the capture surface was carried out using 50 mM NaOH. All binding curves were double referenced with a buffer injection (i.e. 0 nM) the data was fitted to the using the 1:1 model inherent to T100 evaluation software. The run was carried out at 25° C. and 37° C. for experiment 1 and only 37° C. for experiment 2 using HBS-EP as the running buffer.

NCI-H929 tumours = test: NCI-H929 murine xenograft; type: in vivo, CB.17 SCID mice
Description: FIG. 19: Effect of dose escalation of J6M0 and drug conjugated J6M0 on the growth and establishment of NCI-H929 cells in CB.17 SCID mice. Calculated tumour volumes of NCI-H929 tumours in CB17 SCID mice following twice weekly intraperitoneal dosing of either 50 or 100 ug J6M0 anti-BCMA or IgG1 isotype control unconjugated, or conjugated to MMAE or MMAF for 2 weeks. Data points represent mean tumour volume of n=5 per group
The cell line selected for xenograft studies was NCI-H929 which is sensitive to ADC and ADCC killing in vitro. Studies were carried out in immunocompromised CB.17 SCID mice which lack T and B cells but maintain NK cells to allow for ADCC activity.
In order to independently analyze both the ADCC and ADC activities of J6M0 we tested J6M0 antibody in the presence and absence of MMAF or MMAE conjugation. By testing the unconjugated J6M0, any anti-tumour effects could be attributed to some combination of ADDC and functional inhibitory activity.
Mice with NCI-H929 tumours that had reached a volume of 200 mm^3 on average were treated with a human IgG1 control or the J6M0 antibody (unconjugated, MMAE or MMAF) twice weekly at a dose of 50 ug or 100 ug, for 2 weeks.

[4] = molecular target: T3, ARH77-hBCMA 10B5 BCMA expressing transfectant cells (Homo sapiens, UniProt Q02223); test: FACS binding of humanised CA8 to BCMA transfected cells; conditions: varying concentrations, 20 minutes at RT
T3 construct: expressed in transfected cells; host or cells: ARH77 (clone 10B5)
T3 sequence (Q02223 1-184): T2 sequence (Q02223 1-184)
Description: (§3) ARH77-hBCMA 10B5 BCMA expressing transfectant cells or H929 cells were stained with either chimeric CA8 or humanised variants of CA8 designated J6M0, J6M1, J6M2, J9M0, J9M1, J9M2 at varying concentrations for 20 minutes at RT. Cells were then washed with FACS buffer (PBS+0.5% BSA+0.1% sodium azide) to remove unbound antibody. Cells were incubated with a secondary PE labelled anti-human IgG antibody for 15 minutes at RT and then washed with FACS buffer to remove unbound antibody. Cells were analysed by FACS and mean fluorescence intensity (MFI) values measured to determine binding.

H929 cells = test: FACS binding of humanised CA8 to H929 cells; set-up: species or system human; conditions: varying concentrations, 20 minutes at RT
Description: as §3

Human commercial BCMA [5] = molecular target: T2, Human commercial BCMA; test: BIAcore analysis J7 to J9 series, human commercial BCMA; type: binding; conditions: 37° C.; for ka: in M-1s-1 (unit assumed); for kd: in s-1 (unit assumed)
Description: as §2, with “nM) and” for “nM)”, “at” for “at 25° C. and”, “C.,” for “C. for experiment 1 and only 37° C. for experiment 2”

Cyno in house BCMA [6] = test: BIAcore analysis J7 to J9 series, cyno in house BCMA; type: binding; conditions: 37° C.; for ka: in M-1s-1 (unit assumed); for kd: in s-1 (unit assumed)
[7] = Run 2, Human in house BCMA, ProteOn, 25° C.

## CA8 humanised J6M0
Human in house BCMA; Run 2, Human in house BCMA, ProteOn, 25° C., in M-1s-1 (unit assumed)
  ka: 2.40E+05
Human in house BCMA; Run 2, Human in house BCMA, ProteOn, 25° C., in s-1 (unit assumed)
  kd: 7.40E−05
Human commercial BCMA [1]; in M-1s-1 (unit assumed)
  ka: 6.23E+05
Human commercial BCMA [1]; in s-1 (unit assumed)
  kd: 5.37E−05
Cyno in house BCMA [2]; in M-1s-1 (unit assumed)
  ka: 5.64E+04
Cyno in house BCMA [2]; in s-1 (unit assumed)
  kd: 3.18E−04
Human commercial BCMA [3]; 25° C., Experiment 1, in M-1s-1 (unit assumed)
  ka: 1.01E+06
Human commercial BCMA [3]; 25° C., Experiment 1, in s-1 (unit assumed)
  kd: 1.22E−04
Human commercial BCMA [3]; 37° C., Experiment 1, in M-1s-1 (unit assumed)
  ka: 2.12E+06
Human commercial BCMA [3]; 37° C., Experiment 1, in s-1 (unit assumed)
  kd: 1.48E−03
Human commercial BCMA [3]; 37° C., Experiment 2, in M-1s-1 (unit assumed)
  ka: 3.78E+06
Human commercial BCMA [3]; 37° C., Experiment 2, in s-1 (unit assumed)
  kd: 1.88E−03

## J6M0-MMAF
NCI-H929 tumours; 50 ug or 100 ug twice weekly for 2 weeks
  anti-tumour activity compared with unconjugated J6M0 and J6M0-MMAE: increased anti-tumour activity over both unconjugated J6M0 antibody and J6M0-MMAE conjugate
NCI-H929 tumours; 100 ug dose twice weekly for 2 weeks, intraperitoneal, tumours 200 mm^3 at start
  effect on NCI-H929 tumours: elimination of tumours
NCI-H929 tumours; mice maintained for 40 days after the last dose
  recurrence of tumour: no recurrence of tumour

B1: CA8 humanised J9M2: humanised CA8 anti-BCMA antibody, VH J9 (SEQ ID NO:29) + VL M2 (SEQ ID NO:35) (antibody, V domains shown)
VH: QVQLVQSGAEVKKPGSSVKVSCKGSGYTFTNYWMHWVRQAPGQGLEWIGATYRGHSDTYYNQKFKGRATLTADTSTSTAYMELSSLRSEDTAVYYCTRGAIYDGYDVLDNWGQGTLVTVSS
VL: DIQLTQSPSSLSASVGDRVTITCSASQDISNYLNWYQQKPGKAPELVIYYTSNLHSGVPSRFSGSGSGTDYTLTISSLQPEDFATYYCQQYRKLPWTFGQGTKLEIKR
modifications: Humansed antibody sequence
[4]
  dose dependent binding to ARH77-hBCMA 10B5 cells by FACS (MFI): all antibodies tested apart from J9M2 bound
H929 cells
  dose dependent binding to H929 cells by FACS (MFI): all antibodies tested apart from J9M2 bound
Human in house BCMA
  off rate: beyond the sensitivity of the assay
Human commercial BCMA [5]
  KD: No
Cyno in house BCMA [6]
  ka: 4.88E+05
  kd: 2.52E−04

B2: CA8 humanised J9M1: humanised CA8 anti-BCMA antibody, VH J9 (SEQ ID NO:29) + VL M1 (SEQ ID NO:33) (antibody, V domains shown)
VH: B1 VH
VL: B1 VL with L4M, E45K, V47L
modifications: Humansed antibody sequence
Human in house BCMA
  off rate: beyond the sensitivity of the assay
Human commercial BCMA [5]
  ka: 1.96E+07
  kd: 3.50E−04
Cyno in house BCMA [6]
  ka: 6.77E+05
  kd: 2.99E−04

B3: CA8 humanised J7M2: humanised CA8 anti-BCMA antibody, VH J7 (SEQ ID NO:25) + VL M2 (SEQ ID NO:35) (antibody, V domains shown)
VH: B1 VH with G24A, I48M, A68V, L70I, T74K, T97A
VL: B1 VL
modifications: Humansed antibody sequence
Human in house BCMA
  off rate: beyond the sensitivity of the assay
Human commercial BCMA [5]
  ka: 2.37E+06
  kd: 1.35E−04
Cyno in house BCMA [6]
  ka: 3.46E+05
  kd: 4.47E−04

B4: CA8 humanised J7M1: humanised CA8 anti-BCMA antibody, VH J7 (SEQ ID NO:25) + VL M1 (SEQ ID NO:33) (antibody, V domains shown)
VH: B1 VH with G24A, I48M, A68V, L70I, T74K, T97A
VL: B1 VL with L4M, E45K, V47L
modifications: Humansed antibody sequence
Human in house BCMA
  off rate: beyond the sensitivity of the assay
Human commercial BCMA [5]
  ka: 2.35E+06
  kd: 1.31E−04
Cyno in house BCMA [6]
  ka: 3.70E+05
  kd: 3.91E−04

B5: S307118G03 H5L0: humanised S307118G03, VH H5 (SEQ ID NO:87) + VL L0 (SEQ ID NO:89) (antibody, V domains shown)
VH: QVQLVQSGAEVKKPGSSVKVSCKASGYTFTDYYMKWVRQAPGQGLEWIGEIYPNNGGITYNQKFKGRATLTVDKSTSTAYMELSSLRSEDTAVYYCANGYEFDYWGQGTLVTVSS
VL: B1 VL with L4M, D28G, E45K, V47L, N53S, Y71F, R92S
modifications: Humansed antibody sequence
Human in house BCMA; [7]
  KD: No Analysable Binding
Human commercial BCMA [1]
  KD: V weak signal
Cyno in house BCMA [2]
  KD: No

B6: S307118G03 H5L1: humanised S307118G03, VH H5 (SEQ ID NO:87) + VL L1 (SEQ ID NO:91) (antibody, V domains shown)
VH: B5 VH
VL: B1 VL with L4M, D28G, E45K, V47L, N53S, R92S
modifications: Humansed antibody sequence
Human in house BCMA; [7]
  KD: No Analysable Binding
Human commercial BCMA [1]
  KD: V weak signal
Cyno in house BCMA [2]
  KD: No
